Results on 167 variants are retold here after the RNAGym collection of RNA variant scans (doi:10.7554/elife.90254).

To fix the notation:
B1: LINE1-mini (parent)
chain: GGCAGAGCUCAACACAGCGUGGCAAAGUGGCUGUGGCUAGACUGCC

In the data set the parent is B1. The experiment in a line: self-cleavage, relative activity (ratio to wild type); higher = more cleavage; in vitro, sequencing; the parent is a self-cleaving ribozyme.
In the case of A26C G29C, the self-cleavage worked out at 0.37.
Then A26C G29U, with 0.54.
With A25G A26G the figure was 0.34; with A25G A26U, 0.1; with A25G A26C, 0.49.
Regarding A26U G33C, the self-cleavage was 0.06.
Then A26U G33A, with 0.09; and A26U G33U, with 0.08; and A26U C31G, with 0.08.
With A26U C31A the figure was 0.14.
With A26U C31U the figure was 0.18; with A25U U34C, 0.13.
As to A25U U34G, the self-cleavage worked out at 0.16.
With A25U U34A the figure was 0.16; with A25G U43C, 0.1; with A25G U43A, 0.13.
With A25U G29A, the self-cleavage was found to be 0.79.
On to A25U G29U, for which the self-cleavage stood at 2.16.
With A25U G29C the figure was 0.38.
Then A25C G36U, with 0.11; and A25C G36C, with 0.07.
Then A25C G36A, with 0.21; and A26C U32C, with 0.24.
In the case of A26C U32A, the self-cleavage came out at 0.14.
Then A26C U32G, with 0.13.
Then A26G G44A, with 0.31; and A26G G44C, with 0.28.
Then A26G G44U, with 0.3.
Consider A26C C45U, for which the self-cleavage amounted to 1.17.
With A26C C45G the figure was 0.8.
Then A26C C45A, with 0.8; and A25U U43C, with 0.1.
Regarding A25U U43G, the self-cleavage came to 0.
With A25U U43A the figure was 0.21; with A26C U43G, 0.12; with A26C U43C, 0.25.
In the case of A26C U43A, the self-cleavage is 0.07.
Then A25U A39C, with 0.23.
With A25U A39G the figure was 0.07; with A25U A39U, 0.86; with A26C A41G, 0.23.
Then A26C A41U, with 0.72.
Regarding A26C A41C, the self-cleavage was found to be 0.04.
With A25G C46A the figure was 0.55.
Regarding A25G C46G, the self-cleavage was 0.78.
Then A25G C46U, with 0.4.
With A26C G36A the figure was 0.14; with A26C G36U, 0.07.
Then A26C G36C, with 0.11.
As to A26G A41U, the self-cleavage is 0.54.
Consider A26G A41G, for which the self-cleavage came to 0.2.
Then A26G A41C, with 0.12; and A25C U32C, with 0.25.
Then A25C U32A, with 0.05; and A25C U32G, with 0.05; and A25U U38C, with 0.31.
With A25U U38A the figure was 0.6.
Turning to A25U U38G, the self-cleavage came to 0.03.
On to A25G U28A, for which the self-cleavage came to 1.01.
Take A25G U28C: the self-cleavage was found to be 0.84.
Turning to A25G U28G, the self-cleavage stood at 0.57.
Then A25U A41C, with 0.07; and A25U A41G, with 0.38.
Regarding A25U A41U, the self-cleavage came out at 0.6.
With A26G C45A the figure was 1.06; with A26G C45G, 0.31.
Then A26G C45U, with 0.77.
With A25G G36A the figure was 0.15; with A25G G36C, 0.04; with A25G G36U, 0.05.
As for A25G C31A, the self-cleavage is 0.1.
Then A25G C31G, with 0.27.
Turning to A25G C31U, the self-cleavage was 0.13.
For the variant A26G A39U, the self-cleavage was 0.5.
Take A26G A39C: the self-cleavage is 0.18.
Then A26G A39G, with 0.05; and A26G G27A, with 0.99; and A26G G27U, with 0.94.
With A26G G27C the figure was 1.15.
Then A26C C42U, with 0.48; and A26C C42G, with 0.04; and A26C C42A, with 0.16.
As to A26G U34C, the self-cleavage stood at 0.08.
With A26G U34A the figure was 0.04.
With A26G U34G the figure was 0.03.
Then A26U G36C, with 0.13; and A26U G36A, with 0.23; and A25U G30A, with 1.17.
For the variant A25U G30U, the self-cleavage was 1.75.
Take A25U G30C: the self-cleavage was 0.46.
Then A25U U28G, with 0.82; and A25U U28C, with 1.19.
Then A25U U28A, with 0.5.
A26C G30A: the self-cleavage came out at 1.12.
With A26C G30U the figure was 1.45; with A26U C45A, 1.95; with A26U C45U, 0.83.
Then A26U C45G, with 0.64.
With A26G C37A, the self-cleavage was 0.02.
Then A26G C37G, with 0.03; and A26G C37U, with 0.04.
For the variant A25C C46G, the self-cleavage came out at 0.75.
Then A25C C46A, with 0.36; and A25C C46U, with 0.56.
A26U G35U: the self-cleavage was determined as 0.16.
With A26U G35C the figure was 0.09; with A26U G35A, 0.24.
Take A26C C31U: the self-cleavage was 0.17.
A26C C31A: the self-cleavage was 0.38.
In the case of A26C C31G, the self-cleavage came to 0.06.
Consider A25C G44U, for which the self-cleavage stood at 0.16.
With A25C G44C the figure was 0.23; with A25C G44A, 0.42.
Regarding A25C G40A, the self-cleavage was found to be 0.1.
Then A25C G40U, with 0.08; and A25C G40C, with 0.06; and A25G G30U, with 0.89.
For A25G G30C, the self-cleavage turned out to be 1.19.
With A25G G30A the figure was 0.97; with A26U G30A, 1.56.
With A26U G30C the figure was 1.31; with A26U G30U, 1.25.
Then A25G G29C, with 0.65; and A25G G29A, with 0.32.
With A25G G29U, the self-cleavage was determined as 1.14.
As to A25C G29A, the self-cleavage is 0.75.
With A25C G29C, the self-cleavage stood at 0.56.
In the case of A25C G29U, the self-cleavage amounted to 1.19.
With A25C G30A the figure was 0.44; with A25C G30C, 1.64; with A25C G30U, 1.11.
Then A25G U32G, with 0.12; and A25G U32A, with 0.11.
With A25G U32C the figure was 0.06.
As for A25G C45G, the self-cleavage came to 0.17.
With A25G C45A the figure was 0.86; with A25G C45U, 0.45.
With A26U C46U the figure was 2.38; with A26U C46A, 0.77.
For the variant A26U C46G, the self-cleavage was 1.18.
Then A26G G35C, with 0.1; and A26G G35A, with 0.1; and A26G G35U, with 0.16.
Then A26G U28G, with 0.37; and A26G U28A, with 1.25; and A26G U28C, with 1.18.
Take A25G G27U: the self-cleavage is 0.48.
With A25G G27C the figure was 0.16; with A25G G27A, 0.37; with A25G U34A, 0.06.
With A25G U34C the figure was 0.07; with A25G U34G, 0.12.
Then A25U C45A, with 0.41.
For the variant A25U C45G, the self-cleavage is 0.19.
Then A25U C45U, with 2.13; and A25C U38G, with 0.02; and A25C U38C, with 0.46.
Then A25C U38A, with 0.22; and A26U G27A, with 0.8; and A26U G27C, with 0.66.
Then A26U G27U, with 1.41; and A25U G36C, with 0.05.
As to A25U G36A, the self-cleavage stood at 0.12.
With A25U G36U the figure was 0.07; with A25U G44C, 0.29.
As for A25U G44U, the self-cleavage is 0.4.
With A25U G44A the figure was 0.28.
